This data set is described as follows: self-splicing fitness, log relative to wild type (ln ratio); higher = more splicing; Tetrahymena group I intron in knt gene, E. coli kanamycin selection, DiMSum; sequences stand for … in CUCUCU…GGAGGGAAAAGUUAUCAGGCAUGCACCUGGUAGCUAGUCUUUAAACCAAUAGAUUGCAUCGGUUUAAAAGGCAAGACCGUCAAAUUGCGGGAAAGGGGUCAACAGCCGUUCAGUACCAAGUCUCAGGGGAAACUUUGAGAUGGCCUUGCAAAGGGUAUGGUAAUAAGCUGACGGACAUGGUCCUAACCACGCAGCCAAGUCCUAAGUCAACAGAUCUUCUGUUGAUAUGGAUGCAGUUCACAGACUAAAUGUCGGUCGGGGAAGAUGUAUUCUUCUCAUAAGAUAUAGUCGGACCUCUCCUUAAUGGGAGCUAGCGGAUGAAGUGAUGCAACACUGGAGCCGCUGGGAACUAAUUUGUAUGCGAAAGUAUAUUGAUUAGUUUUGGAGUACUCGUGGUCG
An outline of the steps:
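A randomised library covering all eight P1ex-region intron nucleotides was built with the intron in the knt kanamycin-resistance gene on pET-22b(+) and held in E. coli BL21(DE3). Cells were grown overnight at 37°C or 30°C on LB agar, with or without 25 μg/mL kanamycin, plus 100 μg/mL carbenicillin, 50 μM IPTG and 0.2% rhamnose, and pooled colonies were amplicon-sequenced on an Illumina HiSeq 2500. DiMSum fitness is the error-weighted combination of wild-type-normalised replicate fold changes, kanamycin versus none.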

± gives the uncertainty stated by the source.

With AUUCAGCAAUAUUACGAGCC, the “self-splicing fitness (ln)” value reads like this: (30 °C) -2.87 ± 0.47; (37 °C) -1.67 ± 0.45.
Taken in the same sequence, the figures for AUUCAGCAAUAUUACGCAGU were -2.18 ± 0.17 and 0.359 ± 0.15.
Take AUUCAGCAAUAUUACGCCGG: the “self-splicing fitness (ln)” value (30 °C) was -1.07 ± 0.13 and the “self-splicing fitness (ln)” value (37 °C) is -0.848 ± 0.19.
Taken in the same sequence, the figures for AUUCAGCAAUAUUACGCCUA were -0.46 ± 0.12 and -0.501 ± 0.13.
As for AUUCAGCAAUAUUACGCUGA, the “self-splicing fitness (ln)” value (30 °C) was -3.06 ± 0.28 and the “self-splicing fitness (ln)” value (37 °C) was -2.6 ± 0.26.
Taken in the same sequence, the figures for AUUCAGCAAUAUUACGCUUA were -0.623 ± 0.078 and -0.332 ± 0.091.
Taken in the same sequence, the figures for AUUCAGCAAUAUUACGCUUU were -0.755 ± 0.055 and -0.787 ± 0.068.
With AUUCAGCAAUAUUACGGAAA, the “self-splicing fitness (ln)” value runs as follows: (30 °C) -1.03 ± 0.12; (37 °C) -0.365 ± 0.12.
Taken in the same sequence, the figures for AUUCAGCAAUAUUACGGCAA were -0.94 ± 0.083 and 0.292 ± 0.1.
With AUUCAGCAAUAUUACGGGUG, the “self-splicing fitness (ln)” value runs as follows: (30 °C) -1.71 ± 0.077; (37 °C) -0.135 ± 0.086.
AUUCAGCAAUAUUACGGUAG: the “self-splicing fitness (ln)” value runs as follows: (30 °C) -3.49 ± 0.17; (37 °C) -2.87 ± 0.2.
Taken in the same sequence, the figures for AUUCAGCAAUAUUACGGUUG were -2.89 ± 0.11 and -0.981 ± 0.11.
Taken in the same sequence, the figures for AUUCAGCAAUAUUACGUACC were -0.843 ± 0.061 and -0.514 ± 0.089.
In the case of AUUCAGCAAUAUUACGUCCC, the “self-splicing fitness (ln)” value by setting is: (30 °C) -1.53 ± 0.13; (37 °C) -1.3 ± 0.14.
In the case of AUUCAGCAAUAUUACGUCCG, the “self-splicing fitness (ln)” value is, setting by setting: (30 °C) -0.866 ± 0.2; (37 °C) -1.33 ± 0.24.
Taken in the same sequence, the figures for AUUCAGCAAUAUUACGUCGG were -3.16 ± 0.17 and -2.28 ± 0.21.
For the sequence AUUCAGCAAUAUUACGUCUA, the “self-splicing fitness (ln)” value by setting is: (30 °C) -0.634 ± 0.11; (37 °C) -0.557 ± 0.1.
With AUUCAGCAAUAUUACGUGCA, the “self-splicing fitness (ln)” value was -0.628 ± 0.08 (30 °C) and -0.47 ± 0.083 (37 °C).
For the sequence AUUCAGCAAUAUUACGUUUU, the “self-splicing fitness (ln)” value (30 °C) is -2.06 ± 0.09 and the “self-splicing fitness (ln)” value (37 °C) was -0.724 ± 0.091.
Taken in the same sequence, the figures for AUUGAGCAAUAUUACGAAAG were -2.69 ± 0.38 and -1.72 ± 0.29.
Taken in the same sequence, the figures for AUUGAGCAAUAUUACGAAAU were -3.34 ± 0.12 and -2.88 ± 0.16.
For AUUGAGCAAUAUUACGAGCG, the “self-splicing fitness (ln)” value (30 °C) is -3.1 ± 0.27.
For AUUGAGCAAUAUUACGAUCA, the “self-splicing fitness (ln)” value is -1.91 ± 0.16 (30 °C) and -2.07 ± 0.17 (37 °C).
Taken in the same sequence, the figures for AUUGAGCAAUAUUACGCGAA were -3.61 ± 0.37 and -1.28 ± 0.26.
As for AUUGAGCAAUAUUACGGACA, under “30 °C”, the “self-splicing fitness (ln)” value is -2.68 ± 0.31.
Consider AUUGAGCAAUAUUACGGGCU, for which the “self-splicing fitness (ln)” value was -4.12 ± 0.36 (30 °C) and -2.25 ± 0.42 (37 °C).
Regarding AUUGAGCAAUAUUACGGUGU, the “self-splicing fitness (ln)” value (30 °C) was -1.92 ± 0.15 and the “self-splicing fitness (ln)” value (37 °C) is -2.31 ± 0.37.
For AUUGAGCAAUAUUACGGUUG, the “self-splicing fitness (ln)” value was -3.28 ± 0.31 (30 °C) and -2.48 ± 0.29 (37 °C).
Taken in the same sequence, the figures for AUUGAGCAAUAUUACGUCAG were -2.96 ± 0.2 and -2.3 ± 0.45.
Taken in the same sequence, the figures for AUUGAGCAAUAUUACGUUCC were -1.94 ± 0.23 and -2.1 ± 0.3.
Taken in the same sequence, the figures for AUUUAGCAAUAUUACGAAGA were -2.11 ± 0.4 and -1.36 ± 0.34.
For AUUUAGCAAUAUUACGACAC, the “self-splicing fitness (ln)” value (30 °C) was -0.837 ± 0.12 and the “self-splicing fitness (ln)” value (37 °C) is -0.373 ± 0.14.
With AUUUAGCAAUAUUACGACGC, the “self-splicing fitness (ln)” value was -1.8 ± 0.19 (30 °C) and -0.352 ± 0.21 (37 °C).
In the case of AUUUAGCAAUAUUACGAGCU, the “self-splicing fitness (ln)” value runs as follows: (30 °C) -1.88 ± 0.17; (37 °C) -0.00846 ± 0.15.
Turning to AUUUAGCAAUAUUACGAUCG, the “self-splicing fitness (ln)” value is, setting by setting: (30 °C) -1.76 ± 0.15; (37 °C) -0.669 ± 0.12.
AUUUAGCAAUAUUACGCCAC: the “self-splicing fitness (ln)” value was -3.24 ± 0.48 (30 °C) and -1.36 ± 0.35 (37 °C).
On to AUUUAGCAAUAUUACGCCCU, for which the “self-splicing fitness (ln)” value is, setting by setting: (30 °C) 0.0873 ± 0.082; (37 °C) 0.37 ± 0.11.
Take AUUUAGCAAUAUUACGGACC: the “self-splicing fitness (ln)” value reads like this: (30 °C) -1.57 ± 0.2; (37 °C) -1.29 ± 0.27.
Taken in the same sequence, the figures for AUUUAGCAAUAUUACGGAUA were -2.18 ± 0.27 and -1.53 ± 0.27.
Taken in the same sequence, the figures for AUUUAGCAAUAUUACGGCCA were -0.814 ± 0.21 and -0.925 ± 0.23.
Take AUUUAGCAAUAUUACGGGGC: for the setting “30 °C”, the “self-splicing fitness (ln)” value was -3.54 ± 0.41.
AUUUAGCAAUAUUACGUAAC: the “self-splicing fitness (ln)” value runs as follows: (30 °C) -2.52 ± 0.18; (37 °C) -2.58 ± 0.2.
Consider AUUUAGCAAUAUUACGUAAG, for which the “self-splicing fitness (ln)” value is -2.8 ± 0.18 (30 °C) and 0.197 ± 0.18 (37 °C).
As to AUUUAGCAAUAUUACGUAGA, the “self-splicing fitness (ln)” value runs as follows: (30 °C) -2.08 ± 0.15; (37 °C) -2.48 ± 0.23.
For the sequence AUUUAGCAAUAUUACGUCCA, the “self-splicing fitness (ln)” value is -0.944 ± 0.15 (30 °C) and -0.558 ± 0.27 (37 °C).
Taken in the same sequence, the figures for AUUUAGCAAUAUUACGUCCG were -1.76 ± 0.18 and -0.728 ± 0.22.
For the sequence AUUUAGCAAUAUUACGUCUG, the “self-splicing fitness (ln)” value is, setting by setting: (30 °C) -1.73 ± 0.11; (37 °C) -1.15 ± 0.11.
Taken in the same sequence, the figures for AUUUAGCAAUAUUACGUGCA were -1.05 ± 0.11 and -0.306 ± 0.16.
Consider AUUUAGCAAUAUUACGUUGC, for which the “self-splicing fitness (ln)” value (30 °C) was -3.26 ± 0.41.
CAAAAGCAAUAUUACGAACG: the “self-splicing fitness (ln)” value was found to be 0.409 ± 0.072 (30 °C) and 0.483 ± 0.095 (37 °C).
Taken in the same sequence, the figures for CAAAAGCAAUAUUACGAAGC were -4.63 ± 0.36 and -2.27 ± 0.21.
Taken in the same sequence, the figures for CAAAAGCAAUAUUACGACAU were -2.345 ± 0.013 and -1.34 ± 0.033.
Taken in the same sequence, the figures for CAAAAGCAAUAUUACGACCU were -1.79 ± 0.095 and -0.569 ± 0.084.
Regarding CAAAAGCAAUAUUACGACUG, the “self-splicing fitness (ln)” value runs as follows: (30 °C) -0.738 ± 0.068; (37 °C) 0.168 ± 0.099.
Turning to CAAAAGCAAUAUUACGCAAG, the “self-splicing fitness (ln)” value (30 °C) was -1.52 ± 0.12 and the “self-splicing fitness (ln)” value (37 °C) stood at 0.0344 ± 0.12.
Taken in the same sequence, the figures for CAAAAGCAAUAUUACGCAGU were -4.31 ± 0.24 and -3.64 ± 0.27.
As for CAAAAGCAAUAUUACGCCAU, the “self-splicing fitness (ln)” value was -3.4 ± 0.2 (30 °C) and -2.61 ± 0.23 (37 °C).
Taken in the same sequence, the figures for CAAAAGCAAUAUUACGCCUU were -3.67 ± 0.17 and -0.986 ± 0.12.
Taken in the same sequence, the figures for CAAAAGCAAUAUUACGCGCC were -2.04 ± 0.17 and -0.789 ± 0.19.
Taken in the same sequence, the figures for CAAAAGCAAUAUUACGCGGA were -3.43 ± 0.25 and -2.08 ± 0.17.
Turning to CAAAAGCAAUAUUACGCGGC, the “self-splicing fitness (ln)” value runs as follows: (30 °C) -2.85 ± 0.21; (37 °C) -2.21 ± 0.28.

The values are drawn from the supplement of paper PMC7877785.
